These results are taken from patent US20230348603A1 (VERSEAU THERAPEUTICS, published 2023).

Changes are numbered by the printed parent chain. In names and notes the source's numbering stands.

The chains are these.
T1: Cynomolgus Monkey VSIG4-L-His (cynomolgus monkey)
T1 construct: ECD with His tag; also called cyVSIG4-L; cyno VSIG4-L-His
T1 chain: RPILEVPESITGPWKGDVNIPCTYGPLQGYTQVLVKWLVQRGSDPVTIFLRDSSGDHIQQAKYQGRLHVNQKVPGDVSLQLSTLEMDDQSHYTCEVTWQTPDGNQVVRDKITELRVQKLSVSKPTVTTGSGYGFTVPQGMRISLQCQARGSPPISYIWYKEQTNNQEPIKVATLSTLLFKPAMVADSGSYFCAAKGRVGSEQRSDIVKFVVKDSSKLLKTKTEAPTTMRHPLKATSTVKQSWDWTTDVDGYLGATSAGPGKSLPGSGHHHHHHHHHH

T2: Human VSIG4-L-His (human, UniProt Q9Y279 20-283)
T2 construct: long isoform ECD with His tag; also called hVSIG4-L
T2 sequence: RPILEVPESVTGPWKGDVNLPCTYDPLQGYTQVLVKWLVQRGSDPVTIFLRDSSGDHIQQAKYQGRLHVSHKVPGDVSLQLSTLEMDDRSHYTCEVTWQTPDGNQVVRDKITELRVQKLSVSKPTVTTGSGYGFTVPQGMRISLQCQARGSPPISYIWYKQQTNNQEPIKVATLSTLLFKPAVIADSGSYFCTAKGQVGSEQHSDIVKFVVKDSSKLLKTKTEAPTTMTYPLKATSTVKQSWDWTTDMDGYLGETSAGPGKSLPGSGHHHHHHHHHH

B1: h13H11.C humanized IgG4 (S228P) kappa (antibody, V domains shown)
VH: QIQLVQSGSELKKPGASVKVSCKASGYTFENFGMNWVRQAPGQGLEWMGWINTYTGEATYADGFTGRFVFSLDTSVSTAYLQISSLKAEDTAVYYCARDGGFRHFDVWGQGTTVTVSS
VL: DTQVTQSPSSLSASVGDRVTITCQTSTDIDDDMNWYQQKPGKAPKLLISEGNTLRTGVPSRFSSSGSGTDFTFTISSLQPEDIATYYCLQSDNLPLTFGGGTKLEIKR
B2: h13H11.B humanized IgG4 (S228P) kappa (antibody, V domains shown)
VH: QIQLVQSGAEVKKPGASVKVSCKASGYTFENFGMNWVRQAPGQRLEWMGWINTYTGEATYADKFQGRVTFTLDTSASTAYMELSSLRSEDTAVYFCARDGGFRHFDVWGQGTTVTVSS
VL: B1 VL with D1E, T56P, S67Y
B3: h13H11.F humanized IgG4 (S228P) kappa (antibody, V domains shown)
VH: B1 VH with G63D, T65K
VL: B1 VL with D1E, T56P, S67Y
B4: h13H11.E humanized IgG4 (S228P) kappa (antibody, V domains shown)
VH: B2 VH with F70I, F95Y
VL: B1 VL with D30S, D31N, D32Y, T56P
B5: h13H11.A humanized IgG4 (S228P) kappa (antibody, V domains shown)
VH: B1 VH
VL: B1 VL with D1E, T56P, S67Y
B6: h13H11.D humanized IgG4 (S228P) kappa (antibody, V domains shown)
VH: B1 VH
VL: B1 VL with D30S, D31N, D32Y, T56P
B7: h13H11.G humanized IgG4 (S228P) kappa (antibody, V domains shown)
VH: B1 VH with G63D, T65K
VL: B1 VL
B8: h13H11.H humanized IgG4 (S228P) kappa (antibody, V domains shown)
VH: B1 VH with G63D, T65K
VL: B1 VL with D30S, D31N, D32Y, T56P
B9: h12A12.E humanized IgG4 (S228P) kappa (antibody, V domains shown)
VH: QVQMVQSGAEVKKPGASVKVSCKASGYTFTNYWMHWVRQAPGQGLEWMGYINPSTGYTDYNQKFQGRVTMTADKSTSTAYMELSSLRSEDTAVYYCIRGSDYYGRDYWGQGTTVTVSS
VL: DIQMTQSPSSLSASVGDRVTITCQASQDISNYLNWYQQKPGKAPKLLIYYTSRLHSGVPSRFSGSGSGTDYTFTISSLQPEDIATYYCRQGNTLPWTFGGGTKLEIKR
B10: h12A12.F humanized IgG4 (S228P) kappa (antibody, V domains shown)
VH: QVQMVQSGSELKKPGASVKVSCKASGYTFTNYWMHWVRQAPGQGLEWIGYINPSTGYTDYNQGFTGRFVLSADKSSSTAYLQISSLKAEDTAVYYCIRGSDYYGRDYWGQGTTVTVSS
VL: B9 VL
B11: h12A12.G humanized IgG4 (S228P) kappa (antibody, V domains shown)
VH: B9 VH with M4L, K74T, A79V
VL: B9 VL
B12: h12A12.A humanized IgG4 (S228P) kappa (antibody, V domains shown)
VH: B9 VH
VL: B9 VL with P44L, Y87F
B13: h12A12.H humanized IgG4 (S228P) kappa (antibody, V domains shown)
VH: B10 VH with M4L, I48M, L70F, K74T, S76V
VL: B9 VL
B14: h12A12.B humanized IgG4 (S228P) kappa (antibody, V domains shown)
VH: B9 VH
VL: B9 VL with P44L, S56T
B15: h12A12.C humanized IgG4 (S228P) kappa (antibody, V domains shown)
VH: B10 VH
VL: B9 VL with P44L, S56T
B16: h12A12.D humanized IgG4 (S228P) kappa (antibody, V domains shown)
VH: B10 VH with I48M, L70F, S76V
VL: EIVMTQSPATLSLSPGERATLSCRASQDISNYLNWYQQKPGQALRLLIYYTSRRHTGIPARFSGSGSGTDYTLTISSLEPEDFAVYYCRQGNTLPWTFGGGTKLEIKR
B17: h14C05.B humanized IgG4 (S228P) kappa (antibody, V domains shown)
VH: QVQLVQSGSELKKPGASVKVSCKASGYTFTNYGMNWVRQAPGQGLEWMGSINTYTGEATYADGFTGRFVFSLDTSVNTAYLQISSLKAEDTAVYYCARGDYYGRGTWFAYWGQGTLVTVSS
VL: ETQVTQSPSSLSASVGDRVTITCRASQDVSTAVAWYQQKPGKAPKLLIYSASYRYPGVPSRFSGSGSGTDFTLTISSLQPEDFATYYCQQDYSSPWTFGGGTKLEIKR
B18: h14C05.C humanized IgG4 (S228P) kappa (antibody, V domains shown)
VH: QVQLVQSGAEVKKPGASVKVSCKASGYTFTNYGMNWVRQAPGQGLEWMGSINTYTGEATYADKFQGRVTMTLDTSTNTAYMELSSLRSEDTAVYYCARGDYYGRGTWFAYWGQGTLVTVSS
VL: B17 VL
B19: h14C05.F humanized IgG4 (S228P) kappa (antibody, V domains shown)
VH: B17 VH with G63D, T65K
VL: B17 VL
B20: h14C05.G humanized IgG4 (S228P) kappa (antibody, V domains shown)
VH: B17 VH with D62Q, N77S
VL: B17 VL
B21: h14C05.A humanized IgG4 (S228P) kappa (antibody, V domains shown)
VH: B17 VH with Q1E, Q3M, V76A, Y95F
VL: B17 VL

One assay concerns the target T1, Cynomolgus Monkey VSIG4-L-His. Description: BLI, IgG on AHC sensor, antigen 100 nM. On the technique in general: In BLI a coated tip is dipped into the sample, and binding shifts an interference pattern.
Method: (§1) The binding affinity of chimeric antibodies was determined by biolayer interferometry (BLI), using a ForteBio Octet® Red384 system. […] Biosensors were rehydrated prior to the assay in kinetics buffer for 10 minutes and then equilibrated in kinetics buffer for 60 seconds. Antibody was then immobilized for 300 seconds followed by a 120 second baseline wash in fresh kinetics buffer, 300 second analyte association, and 300 second dissociation in the same buffer wells as the baseline wash step. All assay steps occurred at 30° C. with an acquisition rate of 5.0 Hz
(§2) The binding affinity of humanized antibodies and the parental chimeric antibodies was determined by biolayer interferometry (BLI), using a ForteBio Octet® Red384 system, as described above.
B1: the “KD relative to parental chimera” value turned out to be 3.7 fold.

For the molecule B2, the “KD relative to parental chimera” value came out at 0.9 fold.

For B3, the “KD relative to parental chimera” value came to 1.1 fold.

Take B4: the “KD relative to parental chimera” value came out at 1.1 fold.

For the molecule B5, the “KD relative to parental chimera” value worked out at 1 fold.

For the molecule B6, the “KD relative to parental chimera” value worked out at 1.7 fold.

With B7, the “KD relative to parental chimera” value was 0.9 fold.

With B8, the “KD relative to parental chimera” value was found to be 0.9 fold.

For the molecule B9, the “KD relative to parental chimera” value was 0.6 fold.

Turning to B10, the “KD relative to parental chimera” value was determined as 0.4 fold.

For the molecule B11, the “KD relative to parental chimera” value came out at 1.1 fold.

In the case of B12, the “KD relative to parental chimera” value is 1 fold.

For B13, the “KD relative to parental chimera” value was found to be 1 fold.

Turning to B14, the “KD relative to parental chimera” value is 0.7 fold.

As for B15, the “KD relative to parental chimera” value was determined as 0.5 fold.

For the molecule B16, the “KD relative to parental chimera” value was determined as 1.2 fold.

As for B17, the “KD relative to parental chimera” value amounted to 0.7 fold.

Turning to B18, the “KD relative to parental chimera” value was 0.6 fold.

Take B19: the “KD relative to parental chimera” value was 0.7 fold.

As to B20, the “KD relative to parental chimera” value was 0.7 fold.

For the molecule B21, the “KD relative to parental chimera” value worked out at 0.7 fold.

Another assay concerns the target T2, Human VSIG4-L-His. Description: BLI, IgG on AHC sensor, antigen 100 nM.
Method: as §1, §2
For the molecule B1, the “KD relative to parental chimera” value came to 1.2 fold.

As to B2, the “KD relative to parental chimera” value was found to be 2.5 fold.

For the molecule B3, the “KD relative to parental chimera” value is 1.8 fold.

As to B4, the “KD relative to parental chimera” value stood at 1.4 fold.

As to B5, the “KD relative to parental chimera” value stood at 2.6 fold.

As for B6, the “KD relative to parental chimera” value was determined as 0.8 fold.

On to B7, for which the “KD relative to parental chimera” value turned out to be 1.2 fold.

B9: the “KD relative to parental chimera” value was found to be 0.6 fold.

With B10, the “KD relative to parental chimera” value was 0.4 fold.

As for B11, the “KD relative to parental chimera” value turned out to be 0.7 fold.

For B12, the “KD relative to parental chimera” value worked out at 0.7 fold.

For B13, the “KD relative to parental chimera” value was 0.8 fold.

Turning to B14, the “KD relative to parental chimera” value worked out at 0.6 fold.

Take B15: the “KD relative to parental chimera” value was determined as 0.5 fold.

For the molecule B16, the “KD relative to parental chimera” value was determined as 1.1 fold.

For the molecule B17, the “KD relative to parental chimera” value is 0.7 fold.

Take B18: the “KD relative to parental chimera” value was 0.6 fold.

Regarding B19, the “KD relative to parental chimera” value was 0.6 fold.

In the case of B20, the “KD relative to parental chimera” value is 0.8 fold.

Consider B21, for which the “KD relative to parental chimera” value is 0.8 fold.
